Results: the supplement of paper PMC9112550, “Optimization of the antimicrobial peptide Bac7 by deep mutational scanning” (BMC Biology, 2022)

Tested on: Escherichia coli TOP10
Experiment: shrunken log2 fold change of peptide-encoding DNA abundance (4.5 h post-induction vs induction); higher = less antimicrobial activity (less host growth inhibition)
Conditions: time post-induction: 4.5 h; library: site-saturation at positions 5, 18, 19, 20
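Also: peptides expressed intracellularly from a pBAD plasmid library in pooled LB shake-flask culture, induced with 0.3% L-arabinose, DNA abundance read by NGS, three biological replicates, DESeq2 with apeglm shrinkage.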

Sequence	shrunken log2 fold change
RRIRTRPPRLPRPRPRPDVVPRP	-0.106
RRIRTRPPRLPRPRPRPDYGPRP	0.00355
RRIRTRPPRLPRPRPRPDYSPRP	-0.0445
RRIRTRPPRLPRPRPRPECIPRP	0.0878
RRIRTRPPRLPRPRPRPEDHPRP	-0.0554
RRIRTRPPRLPRPRPRPEEDPRP	-0.00174
RRIRTRPPRLPRPRPRPEFEPRP	0.0862
RRIRTRPPRLPRPRPRPEFNPRP	0.085
RRIRTRPPRLPRPRPRPEGRPRP	0.1
RRIRTRPPRLPRPRPRPEHIPRP	-0.223
RRIRTRPPRLPRPRPRPEHSPRP	-0.237
RRIRTRPPRLPRPRPRPEIIPRP	0.095
RRIRTRPPRLPRPRPRPEKCPRP	0.0324
RRIRTRPPRLPRPRPRPEKGPRP	-0.0355
RRIRTRPPRLPRPRPRPEMHPRP	-0.149
RRIRTRPPRLPRPRPRPEMLPRP	0.0362
RRIRTRPPRLPRPRPRPEPDPRP	0.286
RRIRTRPPRLPRPRPRPEPSPRP	0.534
RRIRTRPPRLPRPRPRPEPYPRP	0.0261
RRIRTRPPRLPRPRPRPEQKPRP	0.154
RRIRTRPPRLPRPRPRPEQTPRP	0.303
RRIRTRPPRLPRPRPRPERLPRP	-0.0511
RRIRTRPPRLPRPRPRPERYPRP	0.0845
RRIRTRPPRLPRPRPRPESRPRP	-0.0705
RRIRTRPPRLPRPRPRPESSPRP	-0.0341

Sequence	shrunken log2 fold change
RRIRTRPPRLPRPRPRPETKPRP	0.00321
RRIRTRPPRLPRPRPRPETRPRP	-0.0794
RRIRTRPPRLPRPRPRPEWGPRP	0.249
RRIRTRPPRLPRPRPRPEWLPRP	0.203
RRIRTRPPRLPRPRPRPEWPPRP	0.351
RRIRTRPPRLPRPRPRPFASPRP	-0.00185
RRIRTRPPRLPRPRPRPFATPRP	0.101
RRIRTRPPRLPRPRPRPFCEPRP	-0.0463
RRIRTRPPRLPRPRPRPFCSPRP	0.207
RRIRTRPPRLPRPRPRPFDEPRP	-0.206
RRIRTRPPRLPRPRPRPFETPRP	-0.117
RRIRTRPPRLPRPRPRPFFCPRP	-0.0401
RRIRTRPPRLPRPRPRPFFYPRP	-0.345
RRIRTRPPRLPRPRPRPFGEPRP	-0.101
RRIRTRPPRLPRPRPRPFHQPRP	-0.126
RRIRTRPPRLPRPRPRPFHRPRP	-0.469
RRIRTRPPRLPRPRPRPFIEPRP	-0.553
RRIRTRPPRLPRPRPRPFIQPRP	-0.312
RRIRTRPPRLPRPRPRPFMPPRP	-0.618
RRIRTRPPRLPRPRPRPFMRPRP	-0.0135
RRIRTRPPRLPRPRPRPFMYPRP	-0.576
RRIRTRPPRLPRPRPRPFNGPRP	-0.142
RRIRTRPPRLPRPRPRPFNMPRP	-0.692
RRIRTRPPRLPRPRPRPFQMPRP	-0.135
RRIRTRPPRLPRPRPRPFRAPRP	-0.597

Sequence	shrunken log2 fold change
RRIRTRPPRLPRPRPRPFRTPRP	-0.146
RRIRTRPPRLPRPRPRPFSLPRP	-0.0845
RRIRTRPPRLPRPRPRPFTAPRP	-0.473
RRIRTRPPRLPRPRPRPFVDPRP	-0.0538
RRIRTRPPRLPRPRPRPFWDPRP	0.126
RRIRTRPPRLPRPRPRPFWLPRP	-0.0299
RRIRTRPPRLPRPRPRPFWTPRP	-0.258
RRIRTRPPRLPRPRPRPGDKPRP	0.137
RRIRTRPPRLPRPRPRPGEEPRP	-0.00249
RRIRTRPPRLPRPRPRPGEFPRP	-0.0751
RRIRTRPPRLPRPRPRPGFCPRP	0.106
RRIRTRPPRLPRPRPRPGFDPRP	-0.164
RRIRTRPPRLPRPRPRPGFHPRP	-0.19
RRIRTRPPRLPRPRPRPGGQPRP	0.585
RRIRTRPPRLPRPRPRPGIEPRP	-0.278
RRIRTRPPRLPRPRPRPGKHPRP	-0.803
RRIRTRPPRLPRPRPRPGKRPRP	0.0687
RRIRTRPPRLPRPRPRPGKTPRP	-0.0222
RRIRTRPPRLPRPRPRPGLRPRP	0.598
RRIRTRPPRLPRPRPRPGMFPRP	-0.397
RRIRTRPPRLPRPRPRPGNHPRP	-0.731
RRIRTRPPRLPRPRPRPGNLPRP	0.021
RRIRTRPPRLPRPRPRPGPRPRP	0.716
RRIRTRPPRLPRPRPRPGVNPRP	-0.0412
RRIRTRPPRLPRPRPRPGWCPRP	1.42

Sequence	shrunken log2 fold change
RRIRTRPPRLPRPRPRPGWQPRP	0.174
RRIRTRPPRLPRPRPRPGYSPRP	1.78
RRIRTRPPRLPRPRPRPHAAPRP	0.0465
RRIRTRPPRLPRPRPRPHCLPRP	-0.305
RRIRTRPPRLPRPRPRPHDGPRP	-0.0845
RRIRTRPPRLPRPRPRPHELPRP	-0.125
RRIRTRPPRLPRPRPRPHENPRP	0.00752
RRIRTRPPRLPRPRPRPHFGPRP	-0.00836
RRIRTRPPRLPRPRPRPHGQPRP	-0.0788
RRIRTRPPRLPRPRPRPHGRPRP	0.0169
RRIRTRPPRLPRPRPRPHIKPRP	-0.616
RRIRTRPPRLPRPRPRPHKFPRP	-0.18
RRIRTRPPRLPRPRPRPHLKPRP	-0.207
RRIRTRPPRLPRPRPRPHQGPRP	-0.0325
RRIRTRPPRLPRPRPRPHQWPRP	-0.196
RRIRTRPPRLPRPRPRPHRRPRP	0.0892
RRIRTRPPRLPRPRPRPHSIPRP	-0.0668
RRIRTRPPRLPRPRPRPHSLPRP	0.0291
RRIRTRPPRLPRPRPRPHWAPRP	0.0228
RRIRTRPPRLPRPRPRPHYTPRP	-1.01
RRIRTRPPRLPRPRPRPIAAPRP	0.894
RRIRTRPPRLPRPRPRPIAWPRP	-0.104
RRIRTRPPRLPRPRPRPIDCPRP	0.0429
RRIRTRPPRLPRPRPRPIDEPRP	0.0904
RRIRTRPPRLPRPRPRPIENPRP	0.0452

Sequence	shrunken log2 fold change
RRIRTRPPRLPRPRPRPIFEPRP	-0.113
RRIRTRPPRLPRPRPRPIFIPRP	-0.383
RRIRTRPPRLPRPRPRPIGGPRP	-0.000462
RRIRTRPPRLPRPRPRPIHEPRP	-0.259
RRIRTRPPRLPRPRPRPIKFPRP	-0.0306
RRIRTRPPRLPRPRPRPIMMPRP	-0.267
RRIRTRPPRLPRPRPRPINNPRP	-0.793
RRIRTRPPRLPRPRPRPIPHPRP	-0.307
RRIRTRPPRLPRPRPRPIPKPRP	0.103
RRIRTRPPRLPRPRPRPIPTPRP	-0.606
RRIRTRPPRLPRPRPRPIQLPRP	-0.122
RRIRTRPPRLPRPRPRPIQMPRP	-0.286
RRIRTRPPRLPRPRPRPIRCPRP	0.0185
RRIRTRPPRLPRPRPRPITCPRP	-0.223
RRIRTRPPRLPRPRPRPITHPRP	-0.0526
RRIRTRPPRLPRPRPRPIVFPRP	-0.218
RRIRTRPPRLPRPRPRPIVHPRP	-0.0385
RRIRTRPPRLPRPRPRPIYGPRP	-0.0121
RRIRTRPPRLPRPRPRPKCFPRP	-0.384
RRIRTRPPRLPRPRPRPKDFPRP	-0.00116
RRIRTRPPRLPRPRPRPKDNPRP	-0.5
RRIRTRPPRLPRPRPRPKDVPRP	-0.0302
RRIRTRPPRLPRPRPRPKDWPRP	0.358
RRIRTRPPRLPRPRPRPKECPRP	-0.503
RRIRTRPPRLPRPRPRPKFCPRP	0.365

Sequence	shrunken log2 fold change
RRIRTRPPRLPRPRPRPKGGPRP	0.279
RRIRTRPPRLPRPRPRPKGNPRP	-0.403
RRIRTRPPRLPRPRPRPKGVPRP	0.253
RRIRTRPPRLPRPRPRPKHEPRP	-0.3
RRIRTRPPRLPRPRPRPKHIPRP	-0.823
RRIRTRPPRLPRPRPRPKICPRP	-0.292
RRIRTRPPRLPRPRPRPKLLPRP	0.272
RRIRTRPPRLPRPRPRPKLTPRP	0.0272
RRIRTRPPRLPRPRPRPKLYPRP	-0.363
RRIRTRPPRLPRPRPRPKPMPRP	0.0287
RRIRTRPPRLPRPRPRPKQLPRP	0.23
RRIRTRPPRLPRPRPRPKRNPRP	0.366
RRIRTRPPRLPRPRPRPKSDPRP	-0.146
RRIRTRPPRLPRPRPRPKSNPRP	-0.448
RRIRTRPPRLPRPRPRPKVCPRP	-0.00594
RRIRTRPPRLPRPRPRPKWMPRP	0.00414
RRIRTRPPRLPRPRPRPKWNPRP	0.0454
RRIRTRPPRLPRPRPRPKYDPRP	-0.434
RRIRTRPPRLPRPRPRPKYPPRP	-0.252
RRIRTRPPRLPRPRPRPLAAPRP	0.363
RRIRTRPPRLPRPRPRPLAHPRP	-0.256
RRIRTRPPRLPRPRPRPLAIPRP	0.00788
RRIRTRPPRLPRPRPRPLCNPRP	-0.484
RRIRTRPPRLPRPRPRPLENPRP	0.0394
RRIRTRPPRLPRPRPRPLFEPRP	-0.166
